{"source": "paper PMC10569748", "key": {"Cys": {"tested_on": "Cys", "test": "kinetics", "settings": "free enzyme; cited from earlier work"}, "His": {"tested_on": "His", "test": "kinetics", "settings": "free enzyme; cited from earlier work"}, "Cys25 [1]": {"target": "T1, Cys25 (UniProt position 147, GQCGSCWAFSA)", "test": "kinetics", "settings": "25 °C; 0.1 (constant); free enzyme (kcat/Km profile)"}, "His162 [2]": {"target": "T2, His162 (UniProt position 284, SEQLDHGVLLV)", "test": "kinetics", "settings": "free enzyme (kcat/Km profile)"}, "Cys25 [3]": {"target": "T1, Cys25", "test": "chemical modification", "settings": "25 °C (general statement for all assays); ligand-free enzyme"}, "His162 [4]": {"target": "T2, His162", "test": "NMR", "settings": "Cys25 covalently modified by K11777; cited from earlier work"}, "Cys25 [5]": {"target": "Cys25 (UniProt position 158, GSCGSCWAFSA)", "test": "chemical modification", "settings": "free enzyme; cited from earlier work"}, "His159": {"target": "His159 (UniProt position 292, GNKVDHAVAAV)", "test": "chemical modification", "settings": "free enzyme; cited from earlier work"}, "[6]": {"tested_on": "Cc1cc(=O)oc2cc(NC(=O)[C@H](C)NC(=O)[C@H](CCCNC(=N)N)NC(=O)OCc3ccccc3)ccc12", "test": "purified protein", "settings": "pH 7.5, 25 °C, 2% DMSO, 5 mM DTT, 1 mM CHAPS, 1 mM EDTA"}, "[7]": {"tested_on": "Cc1cc(=O)oc2cc(NC(=O)[C@H](CCCNC(=N)N)NC(=O)[C@H](CCCNC(=N)N)NC(=O)OCc3ccccc3)ccc12", "test": "purified protein", "settings": "pH 7.5, 25 °C, 2% DMSO, 5 mM DTT, 1 mM CHAPS, 1 mM EDTA"}, "[8]": {"tested_on": "Cc1cc(=O)oc2cc(NC(=O)[C@H](CCCNC(=N)N)NC(=O)[C@H](Cc3ccccc3)NC(=O)OCc3ccccc3)ccc12", "test": "purified protein", "settings": "pH 7.5, 25 °C, 2% DMSO, 5 mM DTT, 1 mM CHAPS, 1 mM EDTA"}}, "note": "“And” between values parts separate entries of the source, which are not always exact repeats. Equal entries are not always repeated.", "data": [{"substance": "Cathepsin C (dipeptidyl peptidase I) (Homo sapiens)", "values": [{"measurement": "pKa", "setting": "Cys", "value": 4.3}, {"measurement": "pKa", "setting": "His", "value": 6.5}]}, {"substance": "Cruzain (cruzipain catalytic domain) (Trypanosoma cruzi)", "values": [{"measurement": "pKa", "setting": "Cys25 [1]", "value": "9.6 ± 0.1"}, {"measurement": "pKa", "setting": "His162 [2]; 25 °C, 0.1 (constant), sticky substrate", "value": "6.2 ± 0.4 and 6.0 ± 0.1"}, {"measurement": "pKa", "setting": "His162 [2]; 25 °C", "value": "6.2 ± 0.1"}, {"measurement": "pKa", "setting": "His162 [2]; 40 °C", "value": "5.9 ± 0.1"}, {"measurement": "pKa", "setting": "Cys25 [3]", "value": "9.76 ± 0.04"}]}, {"substance": "Cruzain covalently complexed with K11777 (Trypanosoma cruzi)", "values": [{"measurement": "pKa", "setting": "His162 [4]", "value": "5.2–5.3"}]}, {"substance": "Papain (Carica papaya)", "values": [{"measurement": "pKa", "setting": "Cys25 [5]", "value": 4.0}, {"measurement": "pKa", "setting": "His159", "value": 8.4}]}, {"substance": "cruzain (Trypanosoma cruzi)", "values": [{"measurement": "Km", "setting": "[6]", "value": "38 ± 2", "unit": "µM"}, {"measurement": "kcat", "setting": "[6]", "value": "0.89 ± 0.06", "unit": "s⁻¹"}, {"measurement": "kcat/Km", "setting": "[6]", "value": "23000 ± 3000", "unit": "M⁻¹ s⁻¹"}, {"measurement": "Km", "setting": "[7]", "value": "3.7 ± 0.4", "unit": "µM"}, {"measurement": "kcat", "setting": "[7]", "value": "7.2 ± 0.1", "unit": "s⁻¹"}, {"measurement": "kcat/Km", "setting": "[7]", "value": "1.9e+06 ± 200000", "unit": "M⁻¹ s⁻¹"}, {"measurement": "Km", "setting": "[8]", "value": "0.62 ± 0.02", "unit": "µM"}, {"measurement": "kcat", "setting": "[8]", "value": "17 ± 2", "unit": "s⁻¹"}, {"measurement": "kcat/Km", "setting": "[8]", "value": "2.7e+07 ± 4e+06", "unit": "M⁻¹ s⁻¹"}]}]}
